Source: US20070020327A1

Target: HLA-A*0201 (human)
Test: competition with 125I-labelled standard peptide 941.01 for purified HLA-A*0201, gel filtration
Settings: not given

| binding affinity ratio (IC50 of standard peptide / IC50 of test peptide) | Binder |
| --- | --- |
| 0.0001 | SIEGNYTLRV (modifications not checked) [… (PSM, position 455)] |
| 0.0001 | SIEPEEFL (modifications not checked) [SIEPEEFL (Kallikrein, position 159)] |
| 0.0001 | SIEPEEFL (modifications not checked) [SIEPEEFL (PSA, position 155)] |
| 0.0003 | RLSEPAELT (modifications not checked) [… (PSA, position 121)] |
| 0.0002 | RAVCGGVLV (modifications not checked) [… (PSA, position 43)] |
| 0.0001 | SAVKNFTEI (modifications not checked) [… (PSM, position 634)] |
| 0.0001 | SIEPEEFLT (modifications not checked) [… (PSA, position 155)] |
| 0.0006 | RLHPYKDFI (modifications not checked) [… (PAP, position 180)] |
| 0.0002 | RAASLSLGFL (modifications not checked) [… (PAP, position 10)] |
| 0.0002 | SAHDTTVSGL (modifications not checked) [… (PAP, position 287)] |
| 0.0001 | RAFIDPLGL (modifications not checked) [… (PSM, position 673)] |

Target: HLA-A*0201 (human)
Test: competition with 125I-labelled standard peptide 941.01 for purified HLA, gel filtration
Settings: remark: other sources report otherwise; scale: ratio

| binding affinity ratio | Binder |
| --- | --- |
| 0.0009 | GITSWGPEPCA (modifications not checked) [Kallikrein (hK2) peptide … (position 225)] |

Same assay, conditions: scale: ratio

| binding affinity ratio | Binder |
| --- | --- |
| 0.0001 | GAVPLIQSRIV (modifications not checked) [Kallikrein (hK2) peptide … (position 16)] |

Target: HLA-A*0206 (human)
Test: as above
Settings: remark: other sources report otherwise; scale: ratio

| binding affinity ratio | Binder |
| --- | --- |
| 0.0001 | GITSWGPEPCA (modifications not checked) [Kallikrein (hK2) peptide … (position 225)] |

Same assay, conditions: scale: ratio

| binding affinity ratio | Binder |
| --- | --- |
| 0.0003 | GAVPLIQSRIV (modifications not checked) [Kallikrein (hK2) peptide … (position 16)] |

Target: HLA-A*0201 (human)
Test: competition for purified HLA with 125I-labelled standard peptide 941.01 [..] as competitor, gel filtration
Settings: scale: ratio

| binding affinity ratio | Binder |
| --- | --- |
| 0.0002 | IATLGKLSGL (modifications not checked) [… (PAP position 188, 10-mer)] |
| 0.0002 | IINEDGNEI (modifications not checked) [… (PSM position 130, 9-mer)] |
| 0.0003 | GVLVHPQWV (modifications not checked) [… (Kallikrein position 52 / PSA position 48, 9-mer)] |
| 0.0001 | GVQRGNILNL (modifications not checked) [… (PSM position 252, 10-mer)] |
| 0.0003 | ILGGHRDSWV (modifications not checked) [… (PSM position 373, 10-mer)] |
| 0.0001 | IAEAVGLPSI (modifications not checked) [… (PSM position 283, 10-mer)] |
| 0.0002 | HTVPLSEDQL (modifications not checked) [… (PAP position 144, 10-mer)] |
| 0.0001 | IASKFSERL (modifications not checked) [… (PSM position 642, 9-mer)] |
| 0.0001 | HVISNDVCA (modifications not checked) [… (PSA position 173, 9-mer)] |
| 0.0001 | ILNHMKRAT (modifications not checked) [… (PAP position 267, 9-mer)] |
| 0.001 | ILLGRHSL (modifications not checked) [ILLGRHSL (PSA position 69, 8-mer)] |

Target: HLA-A*0301 (human)
Test: competition with 125I-labelled standard peptide for purified HLA, gel filtration
Settings: not given

| binding affinity ratio (IC50 of standard peptide / IC50 of test peptide) | Binder |
| --- | --- |
| 0.0003 | LVFRHGDR (modifications not checked) [LVFRKGDR (PAP, position 40)] |

Same assay, conditions: remark: other sources report otherwise; scale: ratio

| binding affinity ratio | Binder |
| --- | --- |
| 0.0094 | TAAHCIRNK (modifications not checked) [… (PSA, position 58)] |
| 0.0003 | VTKFMLCAGR (modifications not checked) [… (PSA, position 188)] |

Same assay, conditions: scale: ratio

| binding affinity ratio | Binder |
| --- | --- |
| 0.0003 | TLRGAVEPDR (modifications not checked) [… (PSM, position 361)] |
| 0.0002 | VLTAAHCIR (modifications not checked) [… (PSA, position 56)] |
| 0.0006 | TLVFRHGDR (modifications not checked) [… (PAP, position 39)] |
| 0.0001 | PANEYAYRR (modifications not checked) [… (PSM, position 273)] |
| 0.0006 | WATEDTMTK (modifications not checked) [… (PAP, position 226)] |

Target: HLA-A*1101 (human)
Test: as above
Settings: not given

| binding affinity ratio (IC50 of standard peptide / IC50 of test peptide) | Binder |
| --- | --- |
| 0.0002 | LVFRHGDR (modifications not checked) [LVFRKGDR (PAP, position 40)] |
| 0.01 | LTELYFEK (modifications not checked) [LTELYFEK (PAP, position 315)] |
| 0.2 | LLSLYGIHK (modifications not checked) [… (PAP, position 243)] |

Same assay, conditions: remark: other sources report otherwise; scale: ratio

| binding affinity ratio | Binder |
| --- | --- |
| 0.014 | TAAHCIRNK (modifications not checked) [… (PSA, position 58)] |
| 0.012 | VTKFMLCAGR (modifications not checked) [… (PSA, position 188)] |

Same assay, conditions: scale: ratio

| binding affinity ratio | Binder |
| --- | --- |
| 0.0002 | TLRGAVEPDR (modifications not checked) [… (PSM, position 361)] |
| 0.0005 | VLTAAHCIR (modifications not checked) [… (PSA, position 56)] |
| 0.0002 | TLVFRHGDR (modifications not checked) [… (PAP, position 39)] |
| 0.0002 | PANEYAYRR (modifications not checked) [… (PSM, position 273)] |
| 0.0002 | WATEDTMTK (modifications not checked) [… (PAP, position 226)] |

Target: HLA-A*0201 (human)
Test: competition binding to purified HLA, 125I-labelled standard peptide, gel filtration; ratio = IC50 standard / IC50 test peptide
Settings: not given

| binding affinity ratio | Binder |
| --- | --- |
| 0.0002 | EIVRSFGTL (modifications not checked) [… (PSM, position 397, 9 amino acids)] |
| 0.0001 | EIASKFSERL (modifications not checked) [… (PSM, position 641, 10 amino acids)] |
| 0.0001 | DVCAQVHPQKV (modifications not checked) [… (PSA, position 178, 11 amino acids)] |
| 0.0001 | DMSLLKNRFL (modifications not checked) [… (PSA, position 98, 10 amino acids)] |
| 0.0001 | DMKINCSGKI (modifications not checked) [… (PSM, position 191, 10 amino acids)] |
| 0.0001 | DLVLSIAL (modifications not checked) [DLVLSIAL (Kallikrein, position 3, 8 amino acids)] |
| 0.0001 | DLPTQEPA (modifications not checked) [DLPTQEPA (PSA, position 136, 8 amino acids)] |
| 0.0002 | EAVGLPSIPV (modifications not checked) [… (PSM, position 285, 10 amino acids)] |
| 0.0002 | DTMTKLREL (modifications not checked) [… (PAP, position 230, 9 amino acids)] |

Same assay, conditions: remark: other sources report otherwise

| binding affinity ratio | Binder |
| --- | --- |
| 0.001 | DLVLSIALSV (modifications not checked) [… (Kallikrein, position 3, 10 amino acids)] |
| 0.0003 | DLPTQEPAL (modifications not checked) [… (PSA, position 136, 9 amino acids)] |

Target: HLA-A*0201 (human)
Test: inhibition of 125I probe peptide binding to purified HLA, gel filtration; ratio = IC50 standard/IC50 test
Settings: not given

| binding affinity ratio | Binder |
| --- | --- |
| 0.0002 | ATARRPRWL (modifications not checked) [… (PSM, position 13)] |
| 0.0002 | AALFPPEGV (modifications not checked) [… (PAP, position 121)] |
| 0.0002 | AASLSLGFL (modifications not checked) [… (PAP, position 11)] |
| 0.0002 | AAHCIRNKSV (modifications not checked) [… (PSA, position 59)] |
| 0.0002 | AAPLILSRI (modifications not checked) |
| 0.0008 | ALPERPSLYT (modifications not checked) [… (PSA, position 231)] |
| 0.0002 | AAPLILSRIV (modifications not checked) |
| 0.0002 | ATEDTMTKL (modifications not checked) [… (PAP, position 227)] |
| 0.0002 | AAAETLSEV (modifications not checked) [… (PSM, position 741)] |
| 0.0005 | ATLGKLSGL (modifications not checked) [… (PAP, position 189)] |
| 0.0002 | AQVHPQKVT (modifications not checked) [… (PSA, position 181)] |
| 0.0002 | ALPERPSL (modifications not checked) [ALPERPSL (PSA, position 231)] |

Target: HLA-A*0201 (human)
Test: competition with 125I-labelled standard peptide 941.01 ([..]) for purified HLA-A*0201, gel filtration
Settings: not given

| binding affinity ratio (IC50 of standard peptide / IC50 of test peptide) | Binder |
| --- | --- |
| 0.0001 | SVTWIGAAPL (modifications not checked) [PSA peptide … (position 7, 10 amino acids)] |
| 0.0016 | TLSVTWIGA (modifications not checked) [PSA peptide … (position 5, 9 amino acids)] |
| 0.0008 | TLRVDCTPLM (modifications not checked) [PSM peptide … (position 461, 10 amino acids)] |
| 0.0002 | TLPSWATEDT (modifications not checked) [PAP peptide … (position 222, 10 amino acids)] |
| 0.0001 | SVTWIGAAPLI (modifications not checked) [PSA peptide … (position 7, 11 amino acids)] |
